Assay: yeast display, Sf9 membrane polyspecificity reagent, FACS + sequencing; frameworks hold sequencing errors
How it was run: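 After 36–48 hours of galactose induction, yeast (Saccharomyces cerevisiae BJ5465) displaying a synthetic nanobody library were stained at 4 °C for 1 hour with 10% biotinylated, detergent-solubilized Sf9 membrane reagent. Streptavidin microbeads enriched the stained cells before FACS sorting into low and high (top ~1%) gates on anti-HA and streptavidin fluorescence. Each clone's polyreactivity label reflects its gate of origin.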

| Sequence | polyreactivity (PSR sort gate) |
| --- | --- |
| QVQLVESCGGLVQAGGSLRLSCAASGSTFWKYVMGWYRQAPGKDRELVAAISGRGGSTYYADSVKGRFTISRDNAKNTVYLQMNSLKPEDTAVYYCAKVHTRRKPYNSWGQGTQVTVSS | high polyreactivity |
| QVQLVESGGGLVQAGGSLRLSCAASGSTFSRNAMGWYRQAPGKERELVAAITSSGGSTYYADSVKGRFTISRDNAKNTVYLQMNSLKPEDTAVYYCAAPRRRHFDYWGQGTQVTVSS | high polyreactivity |
| QVQLVESGGGLVQAGGSLRLSCAASGSTFGDYAMGWYRQAPGKERELVAAISVSGASTYYADSVKGRFTISRDNAKNTVYLQMNSLKPEDTAVYYCAATYDTIGDSWGQGTQVTVSS | low polyreactivity |
| QVQLVESGGGLVQAGGSLRLSCAASGYIFYTYAMGCYRQAPGKERELVAGISGSGGSTYYADSVKGRFTISRDNAKNTVYLQMNSLNPEETAVYYCAKDIYQIGYRRYDSWGQGTQVTVSS | low polyreactivity |
| QVQLVESGGGLVQAGGSLRLSCAASGRTFVGNAMGWYRQAPGKEREFVAAITSRTGSTYYADSVKGRFTISRDNAKYTVYLQMNSLKPEDTAVYYCATPYYQNVYSRKAYNYWGQGTQVTVSS | high polyreactivity |
| QVQLVESGGGLVQAGGSLRLSCAASGSTFAGNAMGWYRQAPGKERELVAASTFSGGRTDYADSVKGRFTISRDNAKNTVYLQMNSLNPEDSAVYYCAAPADDTVHYQNYYWGQGTQVTVSS | low polyreactivity |
| QVQLVESGGGLVQAGGSLRLSCAASGNTYGYNAMGWYRQAPGKERELVASITWSGGSTYYADSVKGRFTISRDNAKNTVYLQMNSLKPEDTAVYYCNADVRYGRDHWGQGTQVTVSS | low polyreactivity |
| QVQLVESGGGLDQAGGSLRLSCAASGSIFYPYAMGWYRQAPGKERELVASNSSGGSTYYADSVKGRFTISRDNAKNTVYLQMNSLKPEDTAVYYCARQDYKRFYRYRFGNLYDSWGQGTQVTVSS | high polyreactivity |
| QVQLVESGGGLVQAGGSLRLSCAASGFIFRTYAMGWYRQEPGKERELVAAITYSAGSTYYADSVKGRFTISRDNAKNTVYLQMNSLKPEDTADYYCNVRKTWYGYSVTGRYDYWGQGTQVTVSS | low polyreactivity |
| QVQLVESGGGLVQAGGSLRLSCAASGRTFKKYAMGWYRQAPGKERELVAGITGSGGSTYYADSVKGRFTISRDNAKNTVYLQMNSLKPEDTAVYYCAAYAYGGWHSQDGGNYWGQGTQVTVSS | low polyreactivity |
| QVQLVESGGGLVQAGGSLRLSCAASGSILRQYAMGWYRQAPGKERELVATISRSGGSKYYADSVKGRFTISRDNAKNTVYLQMNSLKPEDTAVYYCAASRYNKSYREWWVGSWGQGTQVTVSS | high polyreactivity |
| QVQLVESGGGLVQAGGSLRLSCAASGSTLGYYVMGWYRQAPGKERELVAAITGGGSTDYADSVKGRFTISRDNAKNTVYLQMNSLIPEDTAVYYCAAERTRTGQLFWWGPIYDYWGQGTQVTVSS | low polyreactivity |
| QVQLVESGGGLVQAGGSLRLSCAASGRTFHYNAMGWYRQAPGKERELVAAISRDGGSTDYADSVKGRFTISRDNAKNTVYLQMNSLKPEDTAVYYCAAPIGKQEFSRDYDYWGQGTQVTVSS | low polyreactivity |
| QVQLVESGGGLVQAGGSLRLSCAASGRIFYYYAMGWYRQAPGKERELVASINSVGTTTYADSVKGRFTISRDNAKNTVYLKMNSLKPEDTAVYYCARDTGCIYYDGYAYDYWGQGTEVTVSS | low polyreactivity |
| QVQLVESGGGLDQAGGSLRLSCAASALIFSSYAMGWYRQAPGKERELVAAITGSGGRTYYADSVKGRFTISRDNAKNTVYLQMNSLKPEDTAVYYCAAKYPAPRYYTGYDYWGQGTQVTVSS | high polyreactivity |
| QDQLVESGGGLVQAGGSLRLSCAASGRLIPSYVMGGYRPAQGKETEFVAGIRRGGGSTYYADSVKGRFTISRDNAKNTVYLQMNSLKPEDTAVYYSAAVKYSRPGVYHGHDSWRQGTQVTVSS | high polyreactivity |
| QVQLVESGGGLVQAGGSLRLSCAASGRIFYPYAMGWYRQAPGKERELVAAISWNGGRTYYADSVKGRFTISRDNAKNTVYLQMNSLKPEDTAVYYCNAGGYSRVTQRFFHKYDYWGQGTQVTVSS | high polyreactivity |
| QVQLVESGGGLVQAGGSLRLSCAASGSTFQTYAMGWYRQAPGKERELVASISYGVTTYYADSVKGRFTISRDNAKNTVYLQMNSLKPEDTAVYYCAREGYKWVYLSYGYWGQGTQVTVSS | low polyreactivity |
| QVQLVESGGGLVQAGGSLRLSCAASGRIFAYYAMGWYRQAPGKERELVAAISGGGGSTYYADSVKGRFTISRDNAKNTVYLQMNSLKPEDTAVYFCAAKSSRYDYYYWGHGTQVTVSS | high polyreactivity |
| QVQLVESGGGLVQAGGSLRLSCAASGRTFWYYDMGWSRQAPGKERELVAAISRSGGSTYYADSVKGRFTISRDNAKNTVYLQMNSLKPEDTAVYFCAAVSYGYWVTEYYYWGQGSQVTVSS | high polyreactivity |
| QVQLVESGGGLVQAGGSLRLSCAASGSTFVKNTMGWYRQAPGKERELVAAISSRGGSTYYADSVKGRFTISRDNAKNTVYLQMNSLKPEDTAVYYCNALGLYSRYQQGEYDYWGQGTQVTVSS | low polyreactivity |
| QVQLVESGVGLVQAGGSLRLSCAASGYTFAYNAMGWYRPAPGKERELVAAITSRAGSTHYADSVKGRFTISRDNAKNTVYLQMNSLKPEDTAVYYCAAKRYNRLRSYRYSDREDYWGQGTQVTVSS | high polyreactivity |
